Measured values taken from patent US20240252592A1 (TIANJIN INSTITUTE OF PHARMACEUTICAL RESEARCH, published 2024).
Where a chain is given by its changes, count along the chain named. Numbered stars: 1 amine (or outer) side, 2 acyl side, 3 side chain; on linkers, the order of the positions; unused ones are H or OH. Square brackets hold non-standard residues; d marks the D form. Side chains are listed from the residue outwards. Ends that are not written are not given here. * marks the point of attachment. C20 diacid = O=C(O)CCCCCCCCCCCCCCCCCCC(=O)*; C18 diacid = O=C(O)CCCCCCCCCCCCCCCCC(=O)*; γGlu = O=C(O)[C@H](CCC(=O)[*:2])N[*:1]; Palmitoyl = CCCCCCCCCCCCCCCC(=O)*; AEEA = NCCOCCOCC(=O)O; Aib = CC(C)(N)C(=O)O

B1: Compound 11 (peptide)
peptide: HXQGTFTSDKSKYLXEKRAKEFIXWLEAGGPSSG
HELM: PEPTIDE1{H.[Aib].Q.G.T.F.T.S.D.K.S.K.Y.L.E.E.K.R.A.K.E.F.I.E.W.L.E.A.G.G.P.S.S.G.[am]}|PEPTIDE2{[CCCCCCCCCCCCCCCC(=O)[*:2]].[gGlu].[gGlu]}$PEPTIDE1,PEPTIDE2,10:R3-3:R2$$$V2.0; N-terminus assumed
SMILES: CCCCCCCCCCCCCCCC(=O)N[C@@H](CCC(=O)N[C@@H](CCC(=O)NCCCC[C@H](NC(=O)[C@H](CC(=O)O)NC(=O)[C@H](CO)NC(=O)[C@@H](NC(=O)[C@H](Cc1ccccc1)NC(=O)[C@@H](NC(=O)CNC(=O)[C@H](CCC(N)=O)NC(=O)C(C)(C)NC(=O)[C@@H](N)Cc1c[nH]cn1)[C@@H](C)O)[C@@H](C)O)C(=O)N[C@@H](CO)C(=O)N[C@@H](CCCCN)C(=O)N[C@@H](Cc1ccc(O)cc1)C(=O)N[C@@H](CC(C)C)C(=O)N[C@@H](CCC(=O)O)C(=O)N[C@@H](CCC(=O)O)C(=O)N[C@@H](CCCCN)C(=O)N[C@@H](CCCNC(=N)N)C(=O)N[C@@H](C)C(=O)N[C@@H](CCCCN)C(=O)N[C@@H](CCC(=O)O)C(=O)N[C@@H](Cc1ccccc1)C(=O)N[C@H](C(=O)N[C@@H](CCC(=O)O)C(=O)N[C@@H](Cc1c[nH]c2ccccc12)C(=O)N[C@@H](CC(C)C)C(=O)N[C@@H](CCC(=O)O)C(=O)N[C@@H](C)C(=O)NCC(=O)NCC(=O)N1CCC[C@H]1C(=O)N[C@@H](CO)C(=O)N[C@@H](CO)C(=O)NCC(N)=O)[C@@H](C)CC)C(=O)O)C(=O)O
B2: Compound 5 (peptide)
peptide: HXQGTFTSDKSKYLXERAAKEFVXWLEGGPSSG
HELM: PEPTIDE1{H.[Aib].Q.G.T.F.T.S.D.K.S.K.Y.L.E.E.R.A.A.K.E.F.V.E.W.L.E.G.G.P.S.S.G.[am]}|PEPTIDE2{[CCCCCCCCCCCCCCCC(=O)[*:2]].[gGlu].[gGlu]}$PEPTIDE1,PEPTIDE2,10:R3-3:R2$$$V2.0; N-terminus assumed
SMILES: CCCCCCCCCCCCCCCC(=O)N[C@@H](CCC(=O)N[C@@H](CCC(=O)NCCCC[C@H](NC(=O)[C@H](CC(=O)O)NC(=O)[C@H](CO)NC(=O)[C@@H](NC(=O)[C@H](Cc1ccccc1)NC(=O)[C@@H](NC(=O)CNC(=O)[C@H](CCC(N)=O)NC(=O)C(C)(C)NC(=O)[C@@H](N)Cc1c[nH]cn1)[C@@H](C)O)[C@@H](C)O)C(=O)N[C@@H](CO)C(=O)N[C@@H](CCCCN)C(=O)N[C@@H](Cc1ccc(O)cc1)C(=O)N[C@@H](CC(C)C)C(=O)N[C@@H](CCC(=O)O)C(=O)N[C@@H](CCC(=O)O)C(=O)N[C@@H](CCCNC(=N)N)C(=O)N[C@@H](C)C(=O)N[C@@H](C)C(=O)N[C@@H](CCCCN)C(=O)N[C@@H](CCC(=O)O)C(=O)N[C@@H](Cc1ccccc1)C(=O)N[C@H](C(=O)N[C@@H](CCC(=O)O)C(=O)N[C@@H](Cc1c[nH]c2ccccc12)C(=O)N[C@@H](CC(C)C)C(=O)N[C@@H](CCC(=O)O)C(=O)NCC(=O)NCC(=O)N1CCC[C@H]1C(=O)N[C@@H](CO)C(=O)N[C@@H](CO)C(=O)NCC(N)=O)C(C)C)C(=O)O)C(=O)O
B3: Compound 3 (peptide)
peptide: HXQGTFTSDKSKYLEERAAKEFVAWLKEGGPSSG
HELM: PEPTIDE1{H.[Aib].Q.G.T.F.T.S.D.K.S.K.Y.L.E.E.R.A.A.K.E.F.V.A.W.L.K.E.G.G.P.S.S.G.[am]}|PEPTIDE2{[CCCCCCCCCCCCCCCC(=O)[*:2]].[gGlu].[gGlu]}$PEPTIDE1,PEPTIDE2,10:R3-3:R2$$$V2.0; N-terminus assumed
SMILES: CCCCCCCCCCCCCCCC(=O)N[C@@H](CCC(=O)N[C@@H](CCC(=O)NCCCC[C@H](NC(=O)[C@H](CC(=O)O)NC(=O)[C@H](CO)NC(=O)[C@@H](NC(=O)[C@H](Cc1ccccc1)NC(=O)[C@@H](NC(=O)CNC(=O)[C@H](CCC(N)=O)NC(=O)C(C)(C)NC(=O)[C@@H](N)Cc1c[nH]cn1)[C@@H](C)O)[C@@H](C)O)C(=O)N[C@@H](CO)C(=O)N[C@@H](CCCCN)C(=O)N[C@@H](Cc1ccc(O)cc1)C(=O)N[C@@H](CC(C)C)C(=O)N[C@@H](CCC(=O)O)C(=O)N[C@@H](CCC(=O)O)C(=O)N[C@@H](CCCNC(=N)N)C(=O)N[C@@H](C)C(=O)N[C@@H](C)C(=O)N[C@@H](CCCCN)C(=O)N[C@@H](CCC(=O)O)C(=O)N[C@@H](Cc1ccccc1)C(=O)N[C@H](C(=O)N[C@@H](C)C(=O)N[C@@H](Cc1c[nH]c2ccccc12)C(=O)N[C@@H](CC(C)C)C(=O)N[C@@H](CCCCN)C(=O)N[C@@H](CCC(=O)O)C(=O)NCC(=O)NCC(=O)N1CCC[C@H]1C(=O)N[C@@H](CO)C(=O)N[C@@H](CO)C(=O)NCC(N)=O)C(C)C)C(=O)O)C(=O)O
B4: Compound 4 (peptide)
peptide: B1 peptide with K17R, R18A, I23V
HELM: PEPTIDE1{H.[Aib].Q.G.T.F.T.S.D.K.S.K.Y.L.E.E.R.A.A.K.E.F.V.A.W.L.E.A.G.G.P.S.S.G.[am]}|PEPTIDE2{[CCCCCCCCCCCCCCCC(=O)[*:2]].[gGlu].[gGlu]}$PEPTIDE1,PEPTIDE2,10:R3-3:R2$$$V2.0; N-terminus assumed
SMILES: CCCCCCCCCCCCCCCC(=O)N[C@@H](CCC(=O)N[C@@H](CCC(=O)NCCCC[C@H](NC(=O)[C@H](CC(=O)O)NC(=O)[C@H](CO)NC(=O)[C@@H](NC(=O)[C@H](Cc1ccccc1)NC(=O)[C@@H](NC(=O)CNC(=O)[C@H](CCC(N)=O)NC(=O)C(C)(C)NC(=O)[C@@H](N)Cc1c[nH]cn1)[C@@H](C)O)[C@@H](C)O)C(=O)N[C@@H](CO)C(=O)N[C@@H](CCCCN)C(=O)N[C@@H](Cc1ccc(O)cc1)C(=O)N[C@@H](CC(C)C)C(=O)N[C@@H](CCC(=O)O)C(=O)N[C@@H](CCC(=O)O)C(=O)N[C@@H](CCCNC(=N)N)C(=O)N[C@@H](C)C(=O)N[C@@H](C)C(=O)N[C@@H](CCCCN)C(=O)N[C@@H](CCC(=O)O)C(=O)N[C@@H](Cc1ccccc1)C(=O)N[C@H](C(=O)N[C@@H](C)C(=O)N[C@@H](Cc1c[nH]c2ccccc12)C(=O)N[C@@H](CC(C)C)C(=O)N[C@@H](CCC(=O)O)C(=O)N[C@@H](C)C(=O)NCC(=O)NCC(=O)N1CCC[C@H]1C(=O)N[C@@H](CO)C(=O)N[C@@H](CO)C(=O)NCC(N)=O)C(C)C)C(=O)O)C(=O)O
B5: Compound 2 (peptide)
peptide: B1 peptide with K17R, R18A, I23V
HELM: PEPTIDE1{H.[Aib].Q.G.T.F.T.S.D.K.S.K.Y.L.E.E.R.A.A.K.E.F.V.E.W.L.E.A.G.G.P.S.S.G.[am]}|PEPTIDE2{[CCCCCCCCCCCCCCCC(=O)[*:2]].[gGlu].[gGlu]}$PEPTIDE1,PEPTIDE2,10:R3-3:R2$$$V2.0; N-terminus assumed
SMILES: CCCCCCCCCCCCCCCC(=O)N[C@@H](CCC(=O)N[C@@H](CCC(=O)NCCCC[C@H](NC(=O)[C@H](CC(=O)O)NC(=O)[C@H](CO)NC(=O)[C@@H](NC(=O)[C@H](Cc1ccccc1)NC(=O)[C@@H](NC(=O)CNC(=O)[C@H](CCC(N)=O)NC(=O)C(C)(C)NC(=O)[C@@H](N)Cc1c[nH]cn1)[C@@H](C)O)[C@@H](C)O)C(=O)N[C@@H](CO)C(=O)N[C@@H](CCCCN)C(=O)N[C@@H](Cc1ccc(O)cc1)C(=O)N[C@@H](CC(C)C)C(=O)N[C@@H](CCC(=O)O)C(=O)N[C@@H](CCC(=O)O)C(=O)N[C@@H](CCCNC(=N)N)C(=O)N[C@@H](C)C(=O)N[C@@H](C)C(=O)N[C@@H](CCCCN)C(=O)N[C@@H](CCC(=O)O)C(=O)N[C@@H](Cc1ccccc1)C(=O)N[C@H](C(=O)N[C@@H](CCC(=O)O)C(=O)N[C@@H](Cc1c[nH]c2ccccc12)C(=O)N[C@@H](CC(C)C)C(=O)N[C@@H](CCC(=O)O)C(=O)N[C@@H](C)C(=O)NCC(=O)NCC(=O)N1CCC[C@H]1C(=O)N[C@@H](CO)C(=O)N[C@@H](CO)C(=O)NCC(N)=O)C(C)C)C(=O)O)C(=O)O

target: human GLP-1 receptor (human, UniProt P43220 24-463); test: cell-based or functional assay

| Binder | EC50 of GLP-1 receptor mediated cAMP production [nM] |
| --- | --- |
| H[Aib]QGTFTSDK([AEEA-AEEA-γGlu-C20 diacid])SKYLDERAAKEFVAWLEAGGPSSG-NH2 (not fully specified; printed as HAibQGTFTSDK***SKYLDERAAKEFVAWLEAGGPSSG-Amid) [Compound 13] | 0.076 |
| B1 | 3.05 |
| H[Aib]QGTFTSDK([γGlu-γGlu-Palmitoyl])SKYLEERAAKEFVEWLEGGPSSG-NH2 (not fully specified; printed as HAibQGTFTSDK*SKYLEERAAKEFVEWLEGGPSSG-Amid) [Compound 7] | 0.72 |
| B2 | 0.26 |
| B3 | 20.8 |

target: GC receptor; test: cell-based or functional assay

| Binder | EC50 of GC receptor mediated cAMP production [nM] |
| --- | --- |
| H[Aib]QGTFTSDK([AEEA-AEEA-γGlu-C18 diacid])SKYLEERAAKEFIAWLEGGPSSG-NH2 (not fully specified; printed as HAibQGTFTSDK**SKYLEERAAKEFIAWLEGGPSSG-Amid) [Compound 6] | 0.052 |
| H[Aib]QGTFTSDK([AEEA-AEEA-γGlu-C20 diacid])SKYLEERAAKEFIAWLEAGGPSSG-NH2 (not fully specified; printed as HAibQGTFTSDK***SKYLEERAAKEFIAWLEAGGPSSG-Amid) [Compound 35] | 0.036 |
| H[Aib]QGTFTSDK([AEEA-AEEA-γGlu-C18 diacid])SKYLDERAAKEFIAWLEGGPSSG-NH2 (not fully specified; printed as HAibQGTFTSDK**SKYLDERAAKEFIAWLEGGPSSG-Amid) [Compound 75] | 0.087 |
| H[Aib]QGTFTSDK([AEEA-AEEA-γGlu-C20 diacid])SKYLDERAAKEFVAWLEAGGPSSG-NH2 (not fully specified; printed as HAibQGTFTSDK***SKYLDERAAKEFVAWLEAGGPSSG-Amid) [Compound 13] | 0.033 |
| B1 | 1.73 |
| B3 | 0.1 |
| B4 | 0.024 |
| B5 | 0.0352 |
| H[Aib]QGTFTSDK([AEEA-AEEA-γGlu-C20 diacid])SKYLDERAAKEFIAWLEAGGPSSG-NH2 (not fully specified; printed as HAibQGTFTSDK***SKYLDERAAKEFIAWLEAGGPSSG-Amid) [Compound 77] | 0.076 |
